According to publication PMC6972895:

Biological target: Chaperonin-containing TCP-1 (CCT) oligomeric complex (human (endogenous in T47D)) (UniProt P17987)
Assay: native gel or EMSA; native PAGE of T47D CCT2-FLAG cell lysates; blotted for FLAG, CCT2 and CCT3; oligomeric complex against free monomer

percent of the total FLAG signal as free monomer: 24%
B1: CCT2-FLAG (FLAG-tagged CCT2, FLAG tag on the C-terminal of CCT2) (natural protein)
chain: MASLSLAPVNIFKAGADEERAETARLTSFIGAIAIGDLVKSTLGPKGMDKILLSSGRDASLMVTNDGATILKNIGVDNPAAKVLVDMSRVQDDEVGDGTTSVTVLAAELLREAESLIAKKIHPQTIIAGWREATKAAREALLSSAVDHGSDEVKFRQDLMNIAGTTLSSKLLTHHKDHFTKLAVEAVLRLKGSGNLEAIHIIKKLGGSLADSYLDEGFLLDKKIGVNQPKRIENAKILIANTGMDTDKIKIFGSRVRVDSTAKVAEIEHAEKEKMKEKVERILKHGINCFINRQLIYNYPEQLFGAAGVMAIEHADFAGVERLALVTGGEIASTFDHPELVKLGSCKLIEEVMIGEDKLIHFSGVALGEACTIVLRGATQQILDEAERSLHDALCVLAQTVKDSRTVYGGGCSEMLMAHAVTQLANRTPGKEAVAMESYAKALRMLPTIIADNAGYDSADLVAQLRAAHSEGNTTAGLDMREGTIGDMAILGITESFQVKRQVLLSAAEAAEVILRVDNIIKAAPRKRVPDHHPC
